The values below come from the supplement of paper PMC9170038.

The series has as its system MS2 coat protein. Nature of the series: apparent KD of MS2 coat protein; designed switch direction (-1 OFF switch, 1 ON switch): -1; higher = weaker reporter binding. A digest of the protocol:
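Designed RNA switches sharing common flanks were transcribed on Illumina chips by stalled E. coli RNA polymerase. They were titrated with SNAP-549-labelled MS2 coat protein, from 0.7 or 1.5 nM doubling to 3 µM, in Tris-HCl pH 7.5 buffer with KCl, MgCl2, BSA, DTT, tRNA and Tween-20. Titrations ran without input, with 200 uM small-molecule ligand, or with an oligonucleotide input. The apparent KD of each design is the median over its clusters, after curve-fitting of normalised cluster fluorescence.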

Setting [1] is: Eterna round: R95, input ligand: FMN 200 uM.
Setting [2] is: Eterna round: R95, input ligand: microRNA oligo, concentration not stated.
Where [3] appears, read: Eterna round: R95, input ligand: none.
[4] abbreviates: input ligand: microRNA oligo, concentration not stated.

“GAUUAACAUGAGGAUCACCCAUGUGAGGAUAUGGACUUGCCCACUUACCCAUUAGAGUCUAGAAGGCGCAUCUG [1986#23] (Eterna round: R97, puzzle: Exclusion 1)”: the “apparent KD of MS2 coat protein” value reads like this: (input ligand: FMN 200 uM) 48.4 nM; (input ligand: none) 49.8 nM.

With “GAUUAACAUGAGGAUCACCCAUGUGAGGAUAUGGACUUGCCCACUUUCCCAUUAGAGUCUAGAAGGCGCAUCUG [1986#24] (Eterna round: R97, puzzle: Exclusion 1)”, the “apparent KD of MS2 coat protein” value reads like this: (input ligand: FMN 200 uM) 37.2 nM; (input ligand: none) 37.9 nM.

For “GAUUAACAUGAGGAUCACCCAUGUGAGGAUAUGGACUUGCUCACUUUCCGAUUCGAGUCUAGAAGGCGCAUCUU [1986#116] (Eterna round: R97, puzzle: Exclusion 1)”, the “apparent KD of MS2 coat protein” value is, setting by setting: (input ligand: FMN 200 uM) 30.6 nM; (input ligand: none) 27.1 nM.

Take “GAUUACUGCAAGCUUUGGGACAUGAGGAUCACCCAUGUUCGUCUUAUUGAUCUAGGUACGCUGACGUACCUAGAUCU [JL-sv1-2.28 Brourd mod] (puzzle: Sensor v3, turn-off variant 1)”: the “apparent KD of MS2 coat protein” value by setting is: under setting [1], 15.8 nM; under setting [2], 26 nM; under setting [3], 14.1 nM.

“GAUUAGUGAGGAUAUGGUAAAGAUAAGAUGAUGAAAGAACUCCAGAAGGCACAUGAGGAUCACCCAUGUAGUAU [Mat - Exclusion 4 - Mod of JL - D22] (puzzle: Exclusion 4)”: the “apparent KD of MS2 coat protein” value under setting [2] was determined as 21.6 nM.

In the case of “GAUUAUGCGAGCUUUAGGGACAUGAGGAUCACCCAUGUUCGUCUUAUUAAUCUAGGUACGCUAACAUACCUAAAUCU [JMF 39] (puzzle: Sensor v3, turn-off variant 1)”, the “apparent KD of MS2 coat protein” value is, setting by setting: under setting [1], 20.3 nM; under setting [2], 34.3 nM; under setting [3], 20.6 nM.

Consider “GAUUAUGCGAGCUUUAGGGACAUGAGGAUCACCCAUGUUCGUCUUAUUAAUCUGGGUACACUAACAUACCUAAAUCU [JMF 9] (puzzle: Sensor v3, turn-off variant 1)”, for which the “apparent KD of MS2 coat protein” value came out at 27.7 nM under setting [1], 47.2 nM under setting [2] and 31.4 nM under setting [3].

For “GAUUAUGCGAGCUUUAGGGACAUGAGGAUCACCCAUGUUCGUCUUAUUAAUCUGGGUACACUGACAUACCUAAAUCU [JMF 69] (puzzle: Sensor v3, turn-off variant 1)”, the “apparent KD of MS2 coat protein” value reads like this: under setting [1], 32.1 nM; under setting [2], 48.4 nM; under setting [3], 33.9 nM.

Consider “GAUUAUGCGAGCUUUAGGGACAUGAGGAUCACCCAUGUUCGUCUUAUUAAUCUGGGUGCGCUAACAUACCUAAAUCU [JMF 52] (puzzle: Sensor v3, turn-off variant 1)”, for which the “apparent KD of MS2 coat protein” value runs as follows: under setting [1], 56 nM; under setting [2], 113 nM; under setting [3], 87.4 nM.

In the case of “GAUUAUGCGAGCUUUAGGGACAUGAGGAUCACCCAUGUUCGUCUUAUUAGUCUGAAUACACUGACAUACCUAAAUCU [JMF 55] (puzzle: Sensor v3, turn-off variant 1)”, the “apparent KD of MS2 coat protein” value is 14.8 nM under setting [1], 19.5 nM under setting [2] and 17.8 nM under setting [3].

As for “GAUUAUGCGAGCUUUAGGGACAUGAGGAUCACCCAUGUUCGUCUUAUUAGUCUGAAUGCACUGACAUACCUAAAUCU [JMF 75] (puzzle: Sensor v3, turn-off variant 1)”, the “apparent KD of MS2 coat protein” value under setting [1] came to 16.2 nM, the “apparent KD of MS2 coat protein” value under setting [2] was 17.7 nM and the “apparent KD of MS2 coat protein” value under setting [3] is 16.1 nM.

As for “GAUUAUGCGAGCUUUAGGGACAUGAGGAUCACCCAUGUUCGUCUUAUUGAUCUAGAUGCACUAACAUACCUAAAUCU [JMF 25] (puzzle: Sensor v3, turn-off variant 1)”, the “apparent KD of MS2 coat protein” value reads like this: under setting [1], 19.7 nM; under setting [2], 25.1 nM; under setting [3], 20.1 nM.

Regarding “GAUUAUGCGAGCUUUAGGGACAUGAGGAUCACCCAUGUUCGUCUUAUUGGUCUAAGUGCACUAACAUACCUAAAUCU [JMF 30] (puzzle: Sensor v3, turn-off variant 1)”, the “apparent KD of MS2 coat protein” value reads like this: under setting [1], 21.2 nM; under setting [2], 38.5 nM; under setting [3], 20 nM.

Take “GAUUAUGCGAGCUUUAGGGACAUGAGGAUCACCCAUGUUCGUCUUAUUGGUCUGAAUACACUGACAUACCUAAAUCU [JMF 56] (Eterna round: R96, puzzle: Sensor v3, turn-off variant 1)”: the “apparent KD of MS2 coat protein” value (input ligand: FMN 200 uM) turned out to be 17.1 nM, the “apparent KD of MS2 coat protein” value under setting [4] amounted to 18.3 nM and the “apparent KD of MS2 coat protein” value (input ligand: none) stood at 18.7 nM.

Take “GAUUAUGCGAGCUUUAGGGACAUGAGGAUCACCCAUGUUCGUCUUAUUGGUCUGAAUACACUGACAUACCUAAAUCU [JMF 56] (puzzle: Sensor v3, turn-off variant 1)”: the “apparent KD of MS2 coat protein” value by setting is: under setting [1], 16.6 nM; under setting [2], 21.8 nM; under setting [3], 15.9 nM.

On to “GAUUAUGCGAGCUUUAGGGACAUGAGGAUCACCCAUGUUCGUCUUAUUGGUCUGAGUACACUGACAUACCUAAAUCU [JMF 63] (puzzle: Sensor v3, turn-off variant 1)”, for which the “apparent KD of MS2 coat protein” value is, setting by setting: under setting [1], 13.3 nM; under setting [2], 15.9 nM; under setting [3], 12.8 nM.

As for “GAUUGACAUGAGGAUCACCCAUGUGAGGAUAUCGGCCGGACCUUGUUAGCUUCCAUCGUGAGAAGGCACAUAGG [Exclusion 1 V35] (puzzle: Exclusion 1)”, the “apparent KD of MS2 coat protein” value under setting [2] was 26.9 nM.

On to “GAUUGAGAAGGAUAUACAUGAGGAUCACCCAUGUGCUUCAGCUAGGAGACUAGCAUUGGUAGAAGGUCUUAAUC [Mod of lroppy 15 - Jieux - Exclusion 3] (Eterna round: R97, puzzle: Exclusion 3)”, for which the “apparent KD of MS2 coat protein” value is, setting by setting: (input ligand: FMN 200 uM) 69.7 nM; (input ligand: none) 19.2 nM.

“GCAACGAGAGGAUAUGCUUAACGACCGGCGGAAGCGGAUCCACAUGAGGAUCACCCAUGUAGAAGGCUCGGACC [Eternabot (Original) Solution 24] (Eterna round: R97, puzzle: Exclusion 2)”: the “apparent KD of MS2 coat protein” value is 35.8 nM (input ligand: FMN 200 uM) and 27.4 nM (input ligand: none).

Turning to “GCAAGACAUGAGGAUCACCCAUGUGAGGAUAUUGCUCGACACCUGCGCGAAGAGUCGAUAAGAAGGUACAGGGU [Eternabot (L2) Solution 90] (Eterna round: R97, puzzle: Exclusion 1)”, the “apparent KD of MS2 coat protein” value by setting is: (input ligand: FMN 200 uM) 69.4 nM; (input ligand: none) 52.6 nM.

On to “GCAAGCGACUAGGCUCGUCUUAUAUUGAAAAGAUUGAAAACAUGAGGAUCACCCAUGUAUGUGGGAAAGUUGAAGUG [JR_SV3TOV2_Sub010] (puzzle: Sensor v3, turn-off variant 2)”, for which the “apparent KD of MS2 coat protein” value is, setting by setting: under setting [1], 393 nM; under setting [2], 526 nM; under setting [3], 332 nM.

In the case of “GCAAGCGAUUAGGCUCGUCUUAUAAAGAAAAGAAUGAAAACAUGAGGAUCACCCAUGUAAGUGGGAAAGUUGAAGUG [JR_SV3TOV2_Sub009] (puzzle: Sensor v3, turn-off variant 2)”, the “apparent KD of MS2 coat protein” value under setting [1] amounted to 267 nM, the “apparent KD of MS2 coat protein” value under setting [2] was found to be 1340 nM and the “apparent KD of MS2 coat protein” value under setting [3] amounted to 210 nM.

In the case of “GCAAGCUUAAUCAGUAUGAACAUGAGGAUCACCCAUGUAUAAGGUAAUUCUUUUGGGUUUUUUAUUGCUCGUCUUAU [JR_STOV1_Sub027] (Eterna round: R97, puzzle: Sensor, turn-off variant 1)”, the “apparent KD of MS2 coat protein” value by setting is: (input ligand: FMN 200 uM) 245 nM; (input ligand: none) 297 nM.

For “GCAAGCUUUUGCUCGCCUUACAUGAGGAUCACCCAUGUGGGCCCGGGCCCGGGCCCGCCGGGCCCGGGCCCGGGCCC [-59.4, -80.7 kcal, A 10%] (Eterna round: R97, puzzle: Sensor, turn-off variant 1)”, the “apparent KD of MS2 coat protein” value reads like this: (input ligand: FMN 200 uM) 26.5 nM; (input ligand: none) 32.2 nM.

Take “GCAAUUUCAAAGGAUAUACCUAAUUAACUAUCGGUAGAAGGUUGGACAUGAGGAUCACCCAUGUGCUCACACUU [Eternabot (L2) Solution 67] (Eterna round: R97, puzzle: Exclusion 6)”: the “apparent KD of MS2 coat protein” value (input ligand: FMN 200 uM) turned out to be 15.9 nM and the “apparent KD of MS2 coat protein” value (input ligand: none) was 15.6 nM.

For “GCACAGGCAGGAUAUACAUGAGGAUCACCCAUGUGACCCUUGAUGUACUCGCGUACACGUAGAAGGGCCUGUGC [Omei Ex3 Model Bachelor's Dilema v41] (Eterna round: R97, puzzle: Exclusion 3)”, the “apparent KD of MS2 coat protein” value is, setting by setting: (input ligand: FMN 200 uM) 633 nM; (input ligand: none) 407 nM.

For the sequence “GCACAUGAGGAUCACCCAUGUCAAUGGGAAUUCCUUCUUCAACAGGAUAUCCGAUGGAGAACGUCGGAGAAGGGUUCGCCAGUA [Eternabot solution 15] (Eterna round: R96, puzzle: Exclusion NG 3)”, the “apparent KD of MS2 coat protein” value was 31.4 nM (input ligand: FMN 200 uM), 19.5 nM under setting [4] and 25.7 nM (input ligand: none).

As to “GCACCGCGAGGAUAUACAUGAGGAUCACCCAUGUGUCCGCAGCGAUGUGUGUACAAAUGUAGAAGGCGCGUAAA [EX3 #60] (Eterna round: R97, puzzle: Exclusion 3)”, the “apparent KD of MS2 coat protein” value turned out to be 21.5 nM (input ligand: FMN 200 uM) and 12.1 nM (input ligand: none).

Take “GCACGGAAAUUCCAUAAAACCACAUGAGGAUCACCCAUGUCUCAGGAUAUGGUCUGGAUUACAGGCCAGAAGGGAGAACCGUGC [Eli exng3 - 059] (Eterna round: R96, puzzle: Exclusion NG 3)”: the “apparent KD of MS2 coat protein” value (input ligand: FMN 200 uM) is 15.1 nM, the “apparent KD of MS2 coat protein” value under setting [4] is 10.2 nM and the “apparent KD of MS2 coat protein” value (input ligand: none) was found to be 11.8 nM.

Take “GCACGGAGUGCAGGAUAUCUGUGCGAUUAGCUCAGAGAAGGGCACAUGAGGAUCACCCAUGUGUAUAAACACAAUAAUCCGUGC [Eli exng1 - 068] (Eterna round: R96, puzzle: Exclusion NG 1)”: the “apparent KD of MS2 coat protein” value (input ligand: FMN 200 uM) was 18.6 nM, the “apparent KD of MS2 coat protein” value under setting [4] amounted to 9.94 nM and the “apparent KD of MS2 coat protein” value (input ligand: none) was found to be 14 nM.
